Assay: soluble on expression in E. coli; label from the status in PepcDB or PDB records

Sequence	soluble on expression in E. coli
MSLKITKIETTLFEYKLDRSMGDANSPMGRKKGSGCVLELITDEGISGISIGGQNALPQINSIFDGILLNNDPKAIFSIWKRMVEKYFKGGHDGIANDAISAIDVALWDLKAKINEEPLWKTLGGNNNKVNVYASDIALPINDDDLFNWYSKMSDKFGFKGGKLKVGLDQESDLKRLELMHNALSKNCDDPILYVDSNEYWSPKQTIRNVSEMEERFTLGWIEEPARRWDFLGLKKVSDSLQTPVCAGENLDTLGDFLPYFHHRSADVIQVSHGMTGISGALQIADAAYALELPVTLGGSSGIIHAHIANAIPNCITVEVPHPEPETKVFTSDVTIKDGYAFVGNKPGMGIEVNYEELAKHKVEKVSQKAGPSPYGRRPGAGLYEIPPTKEEISEGQSKEGHHHHHH	soluble
MGSDKIHHHHHHMQILIYSYNYHPEPIGIAPLMTELAEGLVKRGHQVRVITGMPNYPQRQIYDRYRGKLYVTEQKNGVKIQRSYLRIKSKPNLIDRLLLELSFVFTSLPQALKGERPDVILLTIPPLLVCLPATLIGWLYNCPVVLNVQDILPEAGVRVGLIKNKLMIQALEALEKFAYRTAHTISVIADGFVDNLINKGVPANKIACIPNWVNLNFIRPLPKVNNSWRATHQLDGKFVVLYSGNIALTQGLETVIEAAARLRHLKEIIFVVAGESQALERLQKHCLACGADNVLLLTLQAREKLPQMLAAADVGLIVQKCNVISFNMPSKIPLLLASGRPIVGSVPALGTAAKAIRESGGGVIVEPESAGALAAAVLDLYHQPELAAQLGCKGRKFAVENYSFEQALDRYEELFADAIAKRATNLDILPEMSSKQSLVDI	not soluble
MGSDKIHHHHHHMGKSIRKIVNWKQYNQALVNRGSLTFWVDEAAVNTWYCHEHHGGRGRGFSYSDVAIETALMVKGIFNLSLRALEGFLNSLFTLMSVPLKSPDYTSISKRAKTVNIKYRNPSRGPIAHVVVDATGLKVFGEGEWKTRKHGSEKRRTWRKLHLAIDASTHEVVAAEVSLVSVGDNEVLPTLLNPLRRKITQVSADGAYDTKGCYQLLRRKGCKATIPPRSNAGLWEKRHPRNEAVEALKAGQLKHWKIDNGYHQRSLAETAMGRYKQLNSPMLSLRDYNGQVAEALAGVKAMNKVIRLGMPVRQQVA	not soluble
MFSSIGWPEIFTVLILGLIIIGPERLPKVIEDVRAAIYAAKKAINNAKEELNGNLGAEFDEFREPINKIASIQRMGPKAVLTKALFDEDENFMDNFDPKKIMASGTEGEAYRERGINPQPAGDSASPQTPSNKESQPKAGFSWDDIT	not soluble
MSNYWLNIYKPRGISSAQLVSIVKKILGKTKIGHAGTLDVEAEGILPFAVGEATKLIHLLVDARKTYIFTVKFGMQTNSGDCAGKVIATKDCIPSQEEAYAVCSKFIGNVTQIPPAFSALKVNGVRAYKLAREGKKVELKPRNITIYDLKCLNFDEKNATATYYTECSKGTYIRTLAEDLALSLQSLGFVIELRRTQVGIFKEENAIRIKSPDEITKNALEENSIKIEAILDDILVLDATDSQAQQIKYGQKCLFNYEKDFRHLAKFAYREEFKGNTERNTTAYTLVREDASTGLTYKLPLEVEFGKMSVDLLWVRYKGTLLAIGSLNKSCFNSLRVFNLTQDFF	not soluble
MGSDKIHHHHHHMPLERLNFLGLRNLAALDMRPGPGINLITGANGSGKTSLLEGMHVLGMARSFRTQKLKHAIAHDADAVTLHGRVAGDPPVALGVRRARDASELEIRLDGERGVRVARLAEALPLQLINPDAFRLLEGSPAARREFLDWGVFHVKHEFFEAWRRVRRALKHRNALLRHDRIDARSMRVWEQELAHWSELLDALRSEYMAQFAKAFEDTLHELLPLSGLSLRYYRGWDKQRGLLEVLEGGRDTDRQMGFTQQGPQRADLRLRIGKRAAVEELSRGQQKLVVSALKLAQGRLLDELTGRTCVYLIDDLPAELDVTHRRIFCHWLERLRCQVFITSVEREALANAWQSETDVAMFHVEHGRLLTE	not soluble
MSSEVEPPQKKKQPWLPDYIVENCLAHISRSYYPKLSLVSSPFALSSYPKSSTKRDIASTTEEYFFHVCLQLPKSPLPTWYTLWIKPDQIEKKKKINTFTGNTRLVQIPSSYHYPFDQVFIFNLYGAMRSSKAMVRPPSYGLVSMF	not soluble
MSETPEYGVLSWWDYGNWIVYVGKRPAVSNNFQTGVEDSANFLLTDSEEEAKTIVEKLKVKYVMTDTLMAEGKFSSITSLAGKEIGEYYEVETVKGDTGLRTVATPKQALLQTQVYKLHKLDGTSLGHFRLVHESAVNSTDDGNSKENTVKVFEYVKGATLSGTLEHHHHHH	not soluble
GITPKYTATAKVYMVSASKNSVVDLADLSIGTSLSEDYAELLHVRPIIEAINEENDLGYTYEQLNGMIDISTVEDTRILKISATSIKPEEAKTIANALAEKAVTEIPKLMGTSSPNIAERAITPKGKSSPSLKKN	soluble
SEDNITVRFVTENDKEGWQRLWKSYQDFYEVSFPDDLDDFNFGRFLDPNIKMWAAVAVESSSEKIIGMINFFNHMTTWDFKDKIYINDLYVDENSRVKGAGGKLIQFVYDEADKLGTPSVYWCTDESNHRAQLLYVKVGYKAPKILYKRKGY	soluble
MSLKIRDPYIDERTNMVVIRESPDVVRLAERLVELQDRNDSEVVLEVEVLEVSSTKLTQLGVQYPNSFTLTPLSATGASSLTLSDFKGLNSDRIGVSTPNVVLNLRRELGDTDLLANPKIRAKNHEKAKILIGDKLPVITTTSTSTGFVSESVQYIDVGLKLEVEPSISPDDEVSMKINLEVSSLTNQITTRSGTVAYQIGTRTANTVLKLHDGETQLLAGLIKTQQTSSAARIPGLGDIPLLGRLFSSQTDNGVRNEIVLSITPRVVKPSHRPDTNEGHHHHHH	soluble
MGSDKIHHHHHHMLSLRHSCPRRALKVPNPFVEEAGPQPPKVLKAPVEIQANLRLLQDSRDSLLITFADRNQRFQSFLVDIDRDRGMVALDELIPNTGERFLQNGEAFRVEAFHEGVRIAWECERPVQFGEHDGVPCYWAALPAEVLYHQRRNAYRASIKQSQPIAAEIAGEKLRAPLSGQLLDISATGAKLRFAGNVAERLHPGEIYEDFSAQLPQGAISSAIELRHVRFDEKLDATFAGVRFSEMSGLAQRQVDRFVYQLQREARRFEKDELF	not soluble
MGSDKIHHHHHHMDYRKYFEKLKSDYVYLDNAATTPPLKSVMKKALEFLENYSSIHRGTGYLAKMSTDSYENSRRVIGEYLHATKDDVVVFTANTTDSINKFALLYPFMGNEGVLISDIEHSSNMLPWFKNSGRVKMFNTGKSNKINPYSIEEELYRNPQIKIVSICGASNLTGYLTPLRDIYKICKKYGVYLLVDASQIAPHFKITLDDCDFIAFSGHKMYAPFGAGVLAGRKDVLSHIGLAPTGGGNIVYIGKRGEVIYKEPPLSLEAGTPNGLGAVTVAEAMRVLNEDIGWENMNQHNKRINEIGYKYLSDLSNIKLYYPKDQDIRINRTPTFVFDFKNVGTKVGCDILKENKIGVRCGTFCLYRLIEKVKNIDEYERKRLYRNYIVPNRELPERYSLVRASAGLMTTEEDFLRLRAAIKKVE	not soluble
MGSDKIHHHHHHMKKILVVSHGAALGGSPISGLNIGRHIDKNQFEVIYAFGEEREIFDIAKKEGFKVFFVPKRSYLTIWDYAKIICREKIDIVHLNTLTSYYKYPAMAAWLCRKKIVWFVRENPEEKRCVRLGKYINALADRIVTVSLDTAKKMFYANHAKLCTIYNGIDLKFKKIEGRERLCEELGLSAREKYILCVASLEERKGVKDLVRAFLSSLPKLQGYKLLIVGEDRTKEQRYFLELKELAKDSSEVIFYGKSQKIQQLLSLSELFVLPSYWEGMARVILEAMACGLPVVASDAGGNREQVMDGVNGFLFPPRDIQALSAALEKAILGGRTQLLGKNSRELLEKNFDIKETTKKIENLYKAL	not soluble
MEEIKPASASCVSKEKPSKVSDLISRFEGGSSLSNYSDLKKESAVNLNAPRTPGRHGLTTTPQQKLLSQHLPQRQGNDADKTQGAQTCVANGVMAAQNQMECEEEKAATLSSDTSIQASEPLLDTHIVNGERDETATAPASPTTDSCDGNASDSSYRTPGIGPVLPLEERGAETETKVQERENGESPLELEQLDQHHEMKETNEQKLHKIANELLLTERAYVNRLDLLDQVFYCKLLEEANRGSFPAEMVNKIFSNISSINAFHSKFLLPELEKRMQEWETTPRIGDILQKLAPFLKMYGEYVKGFDNAMELVKNMTERIPQFKSVVEEIQKQKICGSLTLQHHMLEPVQRIPRYEMLLKDYLRKLPPDSLDWNDAKKSLEIISTAASHSNSAIRKMENLKKLLEIYEMLGEEEDIVNPSNELIKEGQILKLAARNTSAQERYLFLFNNMLLYCVPKFSLVGSKFTVRTRVGIDGMKIVETQNEEYPHTFQVSGKERTLELQASSAQDKEEWIKALQETIDAFHQRHETFRNAIAKDNDIHSEVSTAELGKRAPRWIRDNEVTMCMKCKEPFNALTRRRHHCRACGYVVCWKCSDYKAQLEYDGGKLSKVCKDCYQIISGFTDSEEKKRKGILEIESAEVSGNSVVCSFLQYMEKSKPWQKAWCVIPKQDPLVLYMYGAPQDVRAQATIPLLGYVVDEMPRSADLPHSFKLTQSKSVHSFAADSEELKQKWLKVILLAVTGETPGGPNEHPATLDDHPEPKKKSEC	soluble
SVSEIQLMHNLGKHLNSMERVEWLRKKLQDVHNF	soluble
MENTVLNLDSDVIHACEAIFQPIRLVYTHAQTPDVSGVSMLEKIQQILPQIAKNAESAEQLRRVPDENIKLLKEIGLHRAFQPKVYGGLEMSLPDFANCIVTLAGACAGTAWAFSLLCTHSHQIAMFSKQLQDEIWLKDPDATASSSIAPFGKVEEVEGGIILNGDYGWSSGCDHAEYAIVGFNRFDADGNKIYSFGVIPRSDYEIVDNWYAQAIKSSGSKMLKLVNVFIPEYRISKAKDMMEGKSAGFGLYPDSKIFYTPYRPYFASGFSAVSLGIAERMIEAFKEKQRNRVRAYTGANVGLATPALMRIAESTHQVAAARALLEKTWEDHRIHGLNHQYPNKETLAFWRTNQAYAVKMCIEAVDRLMAAAGATSFMDNSELQRLFRDAHMTGAHAYTDYDVCAQILGRELMGMEPDPTMV	soluble
MGSDKIHHHHHHMKRPLKVLVVGAKFGELYLNSFLLEQPGLQLAGLLANGSPRARALANAFGIALYTDIEQLPDDLDIACVVVRSAVVGGAGGQLTESLLRRGLHVIQEHPVHPDELVRHQQLATRMGCQYIVNSFYPHTEAGRCWAGTAQRISRLLEGRKPNLAQLTTSRQLLYSGLDLLFQALGCDLARQVSVSLLDGDDDFHTLSLNLPDSRVLLRLQRWMAADDPDLHSLVMHQLNLAWPSGYLSLDATYGPVNWTPALHAEAHDDDRQTLYTSNADYLQHATAMPLHPAASHWRSAHEIEGPAGVGWLLQQLLAVLQGRPRADGLQADYQLAVARLWQDILRCAGPAEQRMASAPLFIDAAQLRAEG	not soluble
MNQEKLDLRKSAADDTHSGAAFAFQALTPDLILDAIESLGVYPETGLLALNSYENRVYQFRSDEGQRYVVKFYRPDRWSDAQIQEEHDFALALAEQEIPMAVPTAVQGHTLHHFQGFRFALFPSIGGRAFEVDNLEQLEFVGRFIGRMHQYGAQSVFQAREPLNPQILGDEPLAWLKQSELVPTSLRVAFFTVVEQVLAKVNTLWAQQRFKPIRLHGDLHPGNILWTPDGPGFVDLDDARMGPAIQDLWMMLTGDRAQQQLQLEVLLEAYEEFCEFDTRQLALIEPLRALRMVHYNAWIGRRWQDPAFPMHFPWFGDEKYWEQQILAFKEQLAALDEPPLSLIPY	not soluble

— the DeepSol protein solubility set
